From patent US20180282404A1 (Hoffmann-La Roche, published 2018) come the findings set out here.

The target in experiment [1] is T1, Human angiopoietin-1 (ANG-1) with His-tag (human, UniProt Q15389 16-498).
T1 construct: The assays used Angiopoietin-1-His, either R&D Systems #923-AN or in-house material; also called hANG-1; huAng-1
T1 sequence: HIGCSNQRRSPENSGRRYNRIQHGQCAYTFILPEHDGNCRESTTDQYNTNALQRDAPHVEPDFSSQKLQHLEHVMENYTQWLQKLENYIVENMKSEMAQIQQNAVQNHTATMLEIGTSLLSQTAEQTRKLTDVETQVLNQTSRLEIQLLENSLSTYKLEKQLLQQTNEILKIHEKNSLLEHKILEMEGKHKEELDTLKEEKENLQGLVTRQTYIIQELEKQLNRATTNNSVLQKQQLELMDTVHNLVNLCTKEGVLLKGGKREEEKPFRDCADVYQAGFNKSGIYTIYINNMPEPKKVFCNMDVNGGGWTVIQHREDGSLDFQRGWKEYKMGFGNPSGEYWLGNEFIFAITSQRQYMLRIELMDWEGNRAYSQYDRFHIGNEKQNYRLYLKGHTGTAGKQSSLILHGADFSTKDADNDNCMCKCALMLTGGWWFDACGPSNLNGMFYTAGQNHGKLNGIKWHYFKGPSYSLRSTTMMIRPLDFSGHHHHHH
The experiment is described as follows: ANG-1 binding ELISA, human ANG-1 coated, antibody titrated. Here is the method:
(§1) The wells were washed three times with 300 μl PBST (0.2% Tween® 20) and blocked with 200 μl 2% BSA 0.1% Tween® 20 for 30 min at room temperature and subsequently washed three times with 300 μl PBST. […] The wells were washed three times with 300 μl PBST (0.2% Tween® 20) and bound antibody was detected with 100 μL/well 0.1 μg/ml F(ab′) POD (Biozol Cat. No. 206005) in 2% BSA 0.1% Tween® 20 as detection antibody for 1 h on a microtiterplate shaker at room temperature. Unbound detection antibody was washed away three times with 300 μL/well PBST and the bound detection antibody was detected by addition of 100 μL ABTS/well. Determination of absorbance was performed on a Tecan Fluor Spectrometer at a measurement wavelength of 405 nm (reference wavelength 492 nm).
(§2) Briefly, the ELISA-type assay is based on the immobilization of human wild-type Angiopoietin-1 or -2 in a microtiter plate.

The target of experiment [2] is T2, Human angiopoietin-2 (ANG-2) with His-tag (human, UniProt O15123 19-496).
T2 construct: The assays used full-length Angiopoietin-2-His, either R&D Systems #623-AN or in-house material; also called hANG-2; hAng-2
T2 sequence: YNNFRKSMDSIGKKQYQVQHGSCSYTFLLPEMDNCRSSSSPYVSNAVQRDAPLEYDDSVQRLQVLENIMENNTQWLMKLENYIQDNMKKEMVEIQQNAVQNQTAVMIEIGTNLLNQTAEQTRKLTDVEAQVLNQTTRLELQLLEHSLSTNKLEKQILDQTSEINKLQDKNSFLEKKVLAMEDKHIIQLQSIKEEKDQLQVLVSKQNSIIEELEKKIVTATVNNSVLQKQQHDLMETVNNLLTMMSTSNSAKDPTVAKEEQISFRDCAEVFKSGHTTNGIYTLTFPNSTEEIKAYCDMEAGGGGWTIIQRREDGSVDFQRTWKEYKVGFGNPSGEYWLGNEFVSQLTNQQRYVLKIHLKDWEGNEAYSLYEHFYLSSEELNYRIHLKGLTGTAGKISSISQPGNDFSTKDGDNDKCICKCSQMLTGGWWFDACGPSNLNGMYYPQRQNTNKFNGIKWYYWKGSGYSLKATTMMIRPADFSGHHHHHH
The experiment is described as follows: ANG-2 binding ELISA, human ANG-2 coated, antibody titrated. Here is the method: as §1, §2
A general note: An ELISA detects its analyte on a solid surface through an enzyme-linked reagent.

Experiment [3] addresses T2, Human angiopoietin-2 (ANG-2) with …. The experiment is described as follows: Biacore SPR, antibody captured by anti-Fc, ANG-2-His in solution, 1:1 model, average of Experiments 1 + 2. As to the method: (§3) Biacore® T100 Evaluation Software version 1.1.1 was used for analysis of sensorgrams and for calculation of affinity data.
(§4) The affinity for this interaction is determined with the assumption of a 1:1 interaction. Details of this experiment can be found in the general methods section.
Background: SPR reads the build-up and loss of mass on a sensor chip optically.

For experiment [4], the target named is T1, Human angiopoietin-1 (ANG-1) with …. Briefly: ANGPT1/Tie2 interaction ELISA: antibody titrated with 0.2 ug/ml huAngiopoietin-1 on coated Tie2 (printed as 'inhibitory concentrations'). Here is the method:
After each incubation step plates were washed 3 times with PBST. […] Thereafter the wells were blocked with PBS supplemented with 0.2% Tween® 20 and 2% BSA (Roche Diagnostics GmbH, DE) for 1 h. […] Thereafter the plates were washed 6 times with PBST. Plates were developed with freshly prepared ABTS reagent (Roche Diagnostics GmbH, DE, buffer #204 530 001, tablets #11 112 422 001) for 30 minutes at RT. Absorbance was measured at 405 nm.
(§5) 384-well Maxisorp® plates (Nunc) were coated with 0.5 μg/ml human Tie2 (R&D Systems, UK, Cat. No. 313-TI or in house produced material) for 2 h at room temperature and blocked with PBS supplemented with 0.2% Tween® 20 and 2% BSA (Roche Diagnostics GmbH, DE) for 1 h at room temperature under shaking. […] After washing a mixture of 0.5 μg/ml biotinylated anti-Angiopoietin-1/2 clone (R&D Systems #BAF923, BAM0981 R&D Systems, UK) and 1:3000 diluted streptavidin HRP (Roche Diagnostics GmbH, DE, Cat. No. 11089153001) was added for 1 h. Thereafter the plates were washed 6 times with PBST. Plates were developed with freshly prepared ABTS reagent (Roche Diagnostics GmbH, DE, buffer #204 530 001, tablets #11 112 422 001) for 30 minutes at RT. Absorbance was measured at 405 nm.

Experiment [5] has as its target T2, Human angiopoietin-2 (ANG-2) with …. Briefly: ANGPT2/Tie2 interaction ELISA: antibody titrated with 0.2 ug/ml huAngiopoietin-2 on coated Tie2 (printed as 'inhibitory concentrations'). As to the method:
The interaction ELISA was performed on 384 well microtiter plates (MicroCoat, DE, Cat. No. 464718) at RT. After each incubation step plates were washed 3 times with PBST. ELISA plates were coated with 0.5 μg/ml Tie-2 protein (R&D Systems, UK, Cat. No. 313-TI) for at least 2 hours (h). Thereafter the wells were blocked with PBS supplemented with 0.2% Tween® 20 and 2% BSA (Roche Diagnostics GmbH, DE) for 1 h. […] After washing a mixture of 0.5 μg/ml biotinylated anti-Angiopoietin-2 clone BAM0981 (R&D Systems, UK) and 1:3000 diluted streptavidin HRP (Roche Diagnostics GmbH, DE, Cat. No. 11089153001) was added for 1 h. Thereafter the plates were washed 6 times with PBST. Plates were developed with freshly prepared ABTS reagent (Roche Diagnostics GmbH, DE, buffer #204 530 001, tablets #11 112 422 001) for 30 minutes at RT. Absorbance was measured at 405 nm.
as §5

The target is the same in experiment [6]. The experiment is described as follows: Biacore SPR, antibody captured by anti-Fc, ANG-2-His in solution, 1:1 model, Experiment 2. As to the method:
as §3, §4

Experiment [7] shares this target. The experiment is described as follows: cell-based or functional assay.
Experiment [8] addresses T1, Human angiopoietin-1 (ANG-1) with …. Briefly: cell-based or functional assay.
Experiment [9] concerns the target T2, Human angiopoietin-2 (ANG-2) with …. The experiment is described as follows: Biacore SPR, antibody captured by anti-Fc, ANG-2-His in solution, 1:1 model, Experiment 1. Here is the method:
as §3, §4

Experiment [10] addresses T1, Human angiopoietin-1 (ANG-1) with …. The experiment is described as follows: SPR (Biacore): huAng-1 amine-coupled on a CM5 chip (appr. 20000 RU), BSA on the reference cell, antibody 100 nM in HBS-P injected for 3 min, 3 min dissociation. Here is the method: The protein was injected for 20 min in sodium acetate pH 4.5 at 10 μg/ml at a flow rate of 5 μl/min. […] On the reference flow cell BSA was immobilized under the same conditions. The antibodies were diluted in HBS-P to 100 nM and injected for 3 min (association phase). After washing with running buffer for 3 min (dissociation phase), the surface was regenerated by injecting 10 mM sodium hydroxide for 1 min at 5 μl/min.

Some results are limits rather than exact numbers.

B1: <ANG-2> Ang2i_LC07 (antibody, V domains shown)
VH: not shown
VL: QPVLTQSPSVSVAPGETARVACGGNFIGGKSVHWYQQKPGQAPVLVIYDDSERPSGIPERISGSNSGNTATLIITRAEAGDEADYHCQVWDSDSDQGVFGTGTKLTVLG
notes: Only the variable domains are tied to this antibody
For B1, the EC50 in experiment [1] was > 8 µg/mL; in experiment [2], 3.01 µg/mL.

B2: <ANG-2> Ang2k_LC08 (antibody, V domains shown)
VH: QVQLVESGGGVVQPGGSLRLSCAASGFTFSSYGMHWVRQAPGKGLEWVAVISYDGSNKYYADSVKGRFTISRDNSKNTLYLQMNSLRAEDTAVYYCAKPTLDIYMGYYYGMDVWGQGTTVTVSS
VL: QPVLTQPPSASGAPGQRVTISCSGFASNIGSNSVNWYQQVPGTAPKLLIYNNDQRPSGVPDRFSGSRSGTSASLAISGLQSEDEADYYCAAWDDSLNGPVFGGGTKLTVLG
notes: as for B1
As to B2, the Kd in [3] came out at 22 pM; in experiment [6], 27 pM; in [9] it was 16 pM. Besides, the values for the half-inhibitory concentration (IC50) in experiment [4] and in [5] were 11000 pM and 170 pM, respectively. The EC50 came out at 4.04 µg/mL in experiment [1] and 0.105 µg/mL in experiment [2]. Further, the results for the koff in [6] and in experiment [9] were 0.000228 s⁻¹ and 0.000161 s⁻¹, respectively. Further, the “IC50 of ANGPT2 stimulated Tie2 phosphorylation (HEK293-Tie2 clone22, P-Tie2 sandwich ELISA)” value in [7] was ~0.499 µg/mL. The “IC50 of ANGPT1 stimulated Tie2 phosphorylation (HEK293-Tie2 clone22, P-Tie2 sandwich ELISA)” value in experiment [8] was ~0.391 µg/mL.

B3: human anti-ANG-2 antibody <ANG-2> antibody Mab536 (antibody, V domains shown)
VH: EVQLVQSGGGVVQPGRSLRLSCAASGFTFSSYGMHWVRQAPGKGLEWVSYISSSGSTIYYADSVKGRFTISRDNAKNSLYLQMNSLRAEDTAVYYCARDLLDYDILTGYGYWGQGTLVTVSS
VL: not shown
Regarding B3, the Kd in experiment [3], in [6] and in experiment [9] was 29 pM each time. For the same molecule, in [5], the IC50 was 150 pM. For the same molecule, the EC50 in experiment [1] was determined as 2.54 µg/mL; in [2] it was 0.133 µg/mL. Further, the off-rate (koff) in [6] was found to be 0.000125 s⁻¹; in [9] it was 0.000144 s⁻¹.

B4: <ANG-2> Ang2i_LC10 (antibody, V domains shown)
VH: not shown
VL: QPPSVSVAPGQTARITCGGNNIGSKSVHWYQQKPGQAPVLVVYDDSDRPSGIPERFSGSNSGNTATLTISRVEAGDEADYYCQVWDSSSDHWVFGGGTKLTVLG
For B4, in [10], the binding result is on record as “no binding (tested: 100 nM)”.

B5: <ANG-2> Ang2i_LC06 (antibody, V domains shown)
VH: not shown
VL: QPGLTQPPSVSVAPGQTARITCGGNNIGSKSVHWYQQKPGQAPVLVVYDDSDRPSGIPERFSGSNSGNTATLTISRVEAGDEADYYCQVWDSSSDHYVFGTGTKVTVLG
notes: as for B1
Turning to B5, the Kd in experiment [3] is 16 pM; in [6], 21 pM; in experiment [9], 11 pM. In addition, the IC50 in [5] was 100 pM. In addition, the EC50 was > 8 µg/mL in experiment [1] and 0.084 µg/mL in experiment [2]. In addition, the dissociation rate constant (koff) amounted to 0.000114 s⁻¹ in experiment [6] and 7.16e-05 s⁻¹ in experiment [9]. Further, the “IC50 of ANGPT2 stimulated Tie2 phosphorylation (HEK293-Tie2 clone22, P-Tie2 sandwich ELISA)” value in experiment [7] is ~0.508 µg/mL.

In general, EC50 refers to the concentration at which the effect is half-maximal. A high value points to lower potency in that assay. The term Kd denotes a measure of binding affinity in units of concentration. A word on the IC50: it is the concentration needed to halve the response being measured. What is called koff is the first-order rate constant of dissociation. Low values mean slow dissociation, high ones fast dissociation.
